The target of the experiment is Folate receptor alpha on cells (SKOV3, A1847, T47D; low levels on 293T and IOSE6) (human) (UniProt P15328). The experiment can be described thus: cell-based or functional assay.
Sequence of Folate receptor alpha on cells (SKOV3, A1847, T47D; low levels on 293T and IOSE6) (human) (P15328 25-234, stated change not applied): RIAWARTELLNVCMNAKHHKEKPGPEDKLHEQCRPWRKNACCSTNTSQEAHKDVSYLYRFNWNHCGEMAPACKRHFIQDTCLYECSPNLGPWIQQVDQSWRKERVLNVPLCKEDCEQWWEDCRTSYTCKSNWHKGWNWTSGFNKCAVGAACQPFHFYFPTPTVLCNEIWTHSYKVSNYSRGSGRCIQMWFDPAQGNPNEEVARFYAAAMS

Regarding “MOv19-27z CAR (murine anti-human FRA MOv19 CAR)”, the frequency of T cells with surface CAR before exposure to SKOV3 tumor cells was 65 % of T cells and the frequency of T cells with surface CAR five hours after exposure to SKOV3 tumor cells was 1 % of T cells.

Values taken from patent US20260078341A1, “TREATMENT OF CANCER USING CHIMERIC ANTIGEN RECEPTOR” (Novartis AG, priority 2014, published 2026).
